Source: patent US11833164B2, “Methods of treating Fabry disease in patients having a mutation in the GLA gene” (Amicus Therapeutics, Inc., priority 2019, dated 2023)

Test system: mutant form of α-Gal A expressed in HEK-293 cells
Test: HEK assay (GLP HEK / Migalastat Amenability Assay): α-Gal A activity in lysates of transiently transfected HEK-293 cells incubated with or without 10 μM migalastat
Format: cell-based, human
Settings: for Absolute increase (% WT): 10 μM migalastat versus baseline; for Relative increase: 10 μM migalastat α-Gal A activity relative to baseline; for 10 μM migalastat α-Gal A activity (% WT): 5 days; for 10 μM migalastat α-Gal A activity (% WT) / Baseline α-Gal A activity (% WT): percentage of baseline wild-type α-Gal A activity; for 10 μM migalastat α-Gal A activity (% WT) / Baseline α-Gal A activity (% WT) / Baseline α-Gal A activity / 10 μM migalastat α-Gal A activity: mean ± SEM; for Baseline α-Gal A activity / 10 μM migalastat α-Gal A activity: lysates of HEK-293 cells transfected with the mutant form; for Baseline α-Gal A activity: incubated 5 days in the absence of migalastat; for 10 μM migalastat α-Gal A activity: incubated 5 days with 10 μM migalastat
Procedure, shortened: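 Activity reported as 4-MU released (nmol/mg/hr), mean±SEM, from lysates of transiently transfected HEK-293 cells expressing mutant α-Gal A, cultured with or without 10 μM migalastat.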

Molecule	Absolute increase (% WT)	Relative increase	10 μM migalastat α-Gal A activity (% WT)	Baseline α-Gal A activity (% WT) (absence of migalastat)	Baseline α-Gal A activity [nmol/mg/h]	10 μM migalastat α-Gal A activity [nmol/mg/h]	Baseline α-Gal A activity (nmol/mg/hr) (absence of migalastat, mean activity below the limit of detection (<142 nmol/mg/hr))
S188C (protein) MQLRNPELHLGCALALRFLALVSWDIPGARALDNGLARTPTMGWLHWERFMCNLDCQEEPDSCISEKLFMEMAELMVSEGWKDAGYEYLCIDDCWMAPQRDSEGRLQADPQRFPHGIRQLANYVHSKGLKLGIYADVGNKTCAGFPGSFGYYDIDAQTFADWGVDLLKFDGCYCDSLENLADGYKHMCLALNRTGRSIVYSCEWPLYMWPFQKPNYTEIRQYCNHWRNFADIDDSWKSIKSILDWTSFNQERIVDVAGPGGWNDPDMLVIGNFGLSWNQQVTQMALWAIMAAPLFMSNDLRHISPQAKALLQDKDVIAINQDPLGKQGYQLRQGDNFEVWERPLSGLAWAVAMINRQEIGGPRSYTIAVASLGKGVACNPACFITQLLPVKRKLGFYEWTSRLRSHINPTGTVLLQLENTMQMSLKDLL	18.5	1.4	68.6 ± 4.3	50.1 ± 3.7	18465 ± 1552	25569 ± 2083	
L189S (protein) MQLRNPELHLGCALALRFLALVSWDIPGARALDNGLARTPTMGWLHWERFMCNLDCQEEPDSCISEKLFMEMAELMVSEGWKDAGYEYLCIDDCWMAPQRDSEGRLQADPQRFPHGIRQLANYVHSKGLKLGIYADVGNKTCAGFPGSFGYYDIDAQTFADWGVDLLKFDGCYCDSLENLADGYKHMSSALNRTGRSIVYSCEWPLYMWPFQKPNYTEIRQYCNHWRNFADIDDSWKSIKSILDWTSFNQERIVDVAGPGGWNDPDMLVIGNFGLSWNQQVTQMALWAIMAAPLFMSNDLRHISPQAKALLQDKDVIAINQDPLGKQGYQLRQGDNFEVWERPLSGLAWAVAMINRQEIGGPRSYTIAVASLGKGVACNPACFITQLLPVKRKLGFYEWTSRLRSHINPTGTVLLQLENTMQMSLKDLL	20.1	1.3	92.7 ± 3.2	72.6 ± 3.1	23204 ± 1213	29510 ± 1181	
L189V (protein) MQLRNPELHLGCALALRFLALVSWDIPGARALDNGLARTPTMGWLHWERFMCNLDCQEEPDSCISEKLFMEMAELMVSEGWKDAGYEYLCIDDCWMAPQRDSEGRLQADPQRFPHGIRQLANYVHSKGLKLGIYADVGNKTCAGFPGSFGYYDIDAQTFADWGVDLLKFDGCYCDSLENLADGYKHMSVALNRTGRSIVYSCEWPLYMWPFQKPNYTEIRQYCNHWRNFADIDDSWKSIKSILDWTSFNQERIVDVAGPGGWNDPDMLVIGNFGLSWNQQVTQMALWAIMAAPLFMSNDLRHISPQAKALLQDKDVIAINQDPLGKQGYQLRQGDNFEVWERPLSGLAWAVAMINRQEIGGPRSYTIAVASLGKGVACNPACFITQLLPVKRKLGFYEWTSRLRSHINPTGTVLLQLENTMQMSLKDLL	20.2	1.3	100.1 ± 3.9	79.9 ± 5.1	25544 ± 1758	32031 ± 1633	
A190D (protein) MQLRNPELHLGCALALRFLALVSWDIPGARALDNGLARTPTMGWLHWERFMCNLDCQEEPDSCISEKLFMEMAELMVSEGWKDAGYEYLCIDDCWMAPQRDSEGRLQADPQRFPHGIRQLANYVHSKGLKLGIYADVGNKTCAGFPGSFGYYDIDAQTFADWGVDLLKFDGCYCDSLENLADGYKHMSLDLNRTGRSIVYSCEWPLYMWPFQKPNYTEIRQYCNHWRNFADIDDSWKSIKSILDWTSFNQERIVDVAGPGGWNDPDMLVIGNFGLSWNQQVTQMALWAIMAAPLFMSNDLRHISPQAKALLQDKDVIAINQDPLGKQGYQLRQGDNFEVWERPLSGLAWAVAMINRQEIGGPRSYTIAVASLGKGVACNPACFITQLLPVKRKLGFYEWTSRLRSHINPTGTVLLQLENTMQMSLKDLL	26.9	2.2	49 ± 3.4	22.1 ± 1	7141 ± 423	15887 ± 1308	
S188Y (protein) MQLRNPELHLGCALALRFLALVSWDIPGARALDNGLARTPTMGWLHWERFMCNLDCQEEPDSCISEKLFMEMAELMVSEGWKDAGYEYLCIDDCWMAPQRDSEGRLQADPQRFPHGIRQLANYVHSKGLKLGIYADVGNKTCAGFPGSFGYYDIDAQTFADWGVDLLKFDGCYCDSLENLADGYKHMYLALNRTGRSIVYSCEWPLYMWPFQKPNYTEIRQYCNHWRNFADIDDSWKSIKSILDWTSFNQERIVDVAGPGGWNDPDMLVIGNFGLSWNQQVTQMALWAIMAAPLFMSNDLRHISPQAKALLQDKDVIAINQDPLGKQGYQLRQGDNFEVWERPLSGLAWAVAMINRQEIGGPRSYTIAVASLGKGVACNPACFITQLLPVKRKLGFYEWTSRLRSHINPTGTVLLQLENTMQMSLKDLL	31.5	2.0	64.1 ± 3.5	32.6 ± 2.6	12244 ± 1167	23849 ± 1725	
A190G (protein) MQLRNPELHLGCALALRFLALVSWDIPGARALDNGLARTPTMGWLHWERFMCNLDCQEEPDSCISEKLFMEMAELMVSEGWKDAGYEYLCIDDCWMAPQRDSEGRLQADPQRFPHGIRQLANYVHSKGLKLGIYADVGNKTCAGFPGSFGYYDIDAQTFADWGVDLLKFDGCYCDSLENLADGYKHMSLGLNRTGRSIVYSCEWPLYMWPFQKPNYTEIRQYCNHWRNFADIDDSWKSIKSILDWTSFNQERIVDVAGPGGWNDPDMLVIGNFGLSWNQQVTQMALWAIMAAPLFMSNDLRHISPQAKALLQDKDVIAINQDPLGKQGYQLRQGDNFEVWERPLSGLAWAVAMINRQEIGGPRSYTIAVASLGKGVACNPACFITQLLPVKRKLGFYEWTSRLRSHINPTGTVLLQLENTMQMSLKDLL	27.4	1.4	97.9 ± 9.8	70.5 ± 7.3	24299 ± 2173	34126 ± 2992	
S188T (protein) MQLRNPELHLGCALALRFLALVSWDIPGARALDNGLARTPTMGWLHWERFMCNLDCQEEPDSCISEKLFMEMAELMVSEGWKDAGYEYLCIDDCWMAPQRDSEGRLQADPQRFPHGIRQLANYVHSKGLKLGIYADVGNKTCAGFPGSFGYYDIDAQTFADWGVDLLKFDGCYCDSLENLADGYKHMTLALNRTGRSIVYSCEWPLYMWPFQKPNYTEIRQYCNHWRNFADIDDSWKSIKSILDWTSFNQERIVDVAGPGGWNDPDMLVIGNFGLSWNQQVTQMALWAIMAAPLFMSNDLRHISPQAKALLQDKDVIAINQDPLGKQGYQLRQGDNFEVWERPLSGLAWAVAMINRQEIGGPRSYTIAVASLGKGVACNPACFITQLLPVKRKLGFYEWTSRLRSHINPTGTVLLQLENTMQMSLKDLL	24.0	1.5	69.5 ± 4.5	45.4 ± 2.5	17041 ± 1389	26198 ± 2461	
S188F (protein) MQLRNPELHLGCALALRFLALVSWDIPGARALDNGLARTPTMGWLHWERFMCNLDCQEEPDSCISEKLFMEMAELMVSEGWKDAGYEYLCIDDCWMAPQRDSEGRLQADPQRFPHGIRQLANYVHSKGLKLGIYADVGNKTCAGFPGSFGYYDIDAQTFADWGVDLLKFDGCYCDSLENLADGYKHMFLALNRTGRSIVYSCEWPLYMWPFQKPNYTEIRQYCNHWRNFADIDDSWKSIKSILDWTSFNQERIVDVAGPGGWNDPDMLVIGNFGLSWNQQVTQMALWAIMAAPLFMSNDLRHISPQAKALLQDKDVIAINQDPLGKQGYQLRQGDNFEVWERPLSGLAWAVAMINRQEIGGPRSYTIAVASLGKGVACNPACFITQLLPVKRKLGFYEWTSRLRSHINPTGTVLLQLENTMQMSLKDLL	36.4	2.8	57.1 ± 2.8	20.7 ± 2	7746 ± 839	21273 ± 1477	
S188P (protein) MQLRNPELHLGCALALRFLALVSWDIPGARALDNGLARTPTMGWLHWERFMCNLDCQEEPDSCISEKLFMEMAELMVSEGWKDAGYEYLCIDDCWMAPQRDSEGRLQADPQRFPHGIRQLANYVHSKGLKLGIYADVGNKTCAGFPGSFGYYDIDAQTFADWGVDLLKFDGCYCDSLENLADGYKHMPLALNRTGRSIVYSCEWPLYMWPFQKPNYTEIRQYCNHWRNFADIDDSWKSIKSILDWTSFNQERIVDVAGPGGWNDPDMLVIGNFGLSWNQQVTQMALWAIMAAPLFMSNDLRHISPQAKALLQDKDVIAINQDPLGKQGYQLRQGDNFEVWERPLSGLAWAVAMINRQEIGGPRSYTIAVASLGKGVACNPACFITQLLPVKRKLGFYEWTSRLRSHINPTGTVLLQLENTMQMSLKDLL	3.2		3.2 ± 0.2			1159 ± 61	BLD (“BLD” indicates that the mean α-Gal A activity was below the limit of detection (<142 nmol/mg/hr))
